This data set has as its target alpha-thrombin (Homo sapiens, UniProt P00734;P00734 P00734:328-363,P00734:364-622). Put plainly: competition; collected complementary strand (SEQ 3) increased with thrombin 0-100 ppm; HEPES/NaCl/KCl/MgCl2/Tween 20 buffer, room temperature.

B1: thrombin aptamer TA-3bio (ssDNA)
DNA: GGTTGGTGTGGTTGGTTTTT
modifications: 3'-biotin; five T added at 3' end (included in SEQ)
B1: the binding result is “binds”.

The values above are taken from patent publication US20170356905 (published 2017).
